Measured values reported in patent US20260265360A1, “USE OF ANTI-FAM19A5 ANTAGONISTS FOR TREATING HEARING DISORDERS” (NEURACLE SCIENCE CO., LTD., priority 2023, published 2026).

How the values were obtained:
[1] = tested on: noise-induced hearing loss mouse model; test: Dosage effect in noise-induced hearing loss mouse model (ABR threshold); assay type: in vivo
Description: FIGS. 15A, 15B, 15C, 15D, and 15E show the dose-dependent effects of FAM19A5 antagonist administration on ABR threshold in a noise-induced hearing loss mouse model. FIG. 15A provides a schematic of the experimental design. As shown, one day after noise exposure, the animals received varying concentrations of the anti-FAM19A5 antibody (1-30) (i.e., 0 mg/kg, 3 mg/kg, 7 mg/kg, 15 mg/kg, and 30 mg/kg). After noise exposure, control animals received a human anti-IgG antibody (30 mg/kg). ABR threshold was measured at one day after noise exposure and at two weeks after noise exposure. FIG. 15B provides a comparison of ABR threshold for the different treatment groups across a frequency of 0 kHz to 64 kHz at one day after noise exposure. FIG. 15C provides the same data shown in FIG. 15B except as bar graphs. FIG. 15D provides a comparison of ABR threshold for the different treatment groups across a frequency of 0 kHz to 64 kHz at two weeks after noise exposure. FIG. 15E provides the same data shown in […] except as bar graphs. In each of FIGS. 15B-15E, ABR threshold prior to noise exposure is also shown (“BN”). In both FIGS. 15C and 15E, for each of the frequency groups shown, the first bar (from the left) corresponds to pre-noise exposure (“BN”), the second bar corresponds to animal streated with the control anti-IgG antibody (“hIgG”), the third bar corresponds to animals treated with 0 mg/kg of the anti-FAM19A5 antibody, the fourth bar corresponds to animals treated with 3 mg/kg of the anti-FAM19A5 antibody, the fifth bar corresponds to animals treated with 7 mg/kg of the anti-FAM19A5 antibody, the sixth bar corresponds to animals treated with 15 mg/kg of the anti-FAM19A5 antibody, and the last bar corresponds to animals treated with 30 mg/kg of the anti-FAM19A5 antibody.
To assess whether the above-described therapeutic effects of FAM19A5 antagonists on hearing loss is dose dependent, the noise-induced hearing loss mouse model described in Example 3 was used. […] ABR threshold was measured prior to noise exposure, one day after noise exposure, and two weeks after noise exposure.

[2] = target: FAM19A5 antigen (Homo sapiens, UniProt Q7Z5A7); test: Cross-competition two-site sandwich ELISA; assay type: binding; details: antibodies 1-65, P2-A03, P2-F11, 13B4, 2-13, 3-2; cross-competition = S/N ratio lower than 2
Sequence of FAM19A5 antigen (Q7Z5A7 44-132): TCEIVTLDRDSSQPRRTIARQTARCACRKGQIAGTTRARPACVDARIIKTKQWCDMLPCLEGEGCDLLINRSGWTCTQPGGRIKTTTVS
Description: The term “S/N” refers to the signal to noise ratio, which is measured as follows: [O.D. of 10 ng/ml antigen]/[O.D. of 0 ng/ml antigen].
Next, a two-site sandwich ELISA was used as described below to assess whether the different anti-FAM19A5 antibodies with similar binding epitopes cross-compete with each other.
First, the indicated anti-FAM19A5 antibodies were diluted in 1×PBS to a concentration of 10 μg/mL. The diluted anti-FAM19A5 antibodies (10 μg/mL in 1×PBS) (“capture antibody”) were used to coat the 96-well plates (100 μL/well) at 37° C. for approximately 1 hour. After the incubation, the plates were washed with the washing buffer (0.01% Tween-20/PBS; also called 0.01% PBST) for a total of five washes, blocked with the blocking solution (5% BSA/PBS; also called 5% PBSA) (250 μL/well) for one hour at 37° C., and then washed again. Next, 100 μg/mL of the FAM19A5 antigen (diluted in PBS containing 5% BSA, 0.01% Tween-20; also called 5% PBSAT; “diluent buffer) was added to each of the wells, and the 96-well plates were incubated for 2 hours at 37° C. After the incubations, the plates were washed using 0.01% PBST for a total of five washes. After the final wash, the indicated biotinylated anti-FAM19A5 antibodies (“detection antibody”) (diluted to lug/mL in 5% PBSAT) were added to the relevant wells (100 μL volume) and the plates were incubated for an additional 1 hour at 37° C. Afterwards, the plates were washed again with 0.01% PBST (five total washes). Next, 100 μL of the diluted (1/2000 in 5% PBSAT) Streptavidin-HRP (1 mg/mL, Sigma, USA) was added to the wells, and the plates were incubated for 30 minutes at room temperature. The plates were then washed and treated with 100 μL of the TMB substrate ([…], Thermo Fisher Scientific). After an additional 30-minute incubation at room temperature, the color change reaction was induced by the addition of the TMB substrate. This reaction was stopped using 50 μL of sulfuric acid (2N H2SO4), and the extent of color change was detected via absorption at 450 nm with reference wavelength at 620 nm using a 96 well microplate reader (Molecular Device).

Molecule | effect on ABR threshold by dose ([1]; one day post noise exposure, 15 mg/kg and 30 mg/kg) | ABR threshold across frequencies ([1]; one day post noise exposure, 1, 3, 7, 15, 30 mg/kg i.v.) | ABR threshold ([1]; two weeks post noise exposure, doses of 7, 15 or 30 mg/kg, many of the frequencies) | cross-competition with the other anti-FAM19A5 antibodies [2]
1-30: anti-FAM19A5 antibody, de-immunized variant of 3-2; VH SEQ ID NO: 235, VL SEQ ID NO: 240 (antibody, V domains shown, Low-PI VH, 1-30 VH, 1-17 VH, 1-32 VH, 4-11 VH, 6-10 VH; 1-30 VL) VH: AVTLDESGGGLQTPGGALRLSCKASGFDFESFNMFWVRQAPGKGLEYVSQISSSEEDENYAPAVKGRATISRDNGQSTLYLQMNSLRAEDTGTYYCAKSSYDCPYGHCSSGVDSAGEIDAWGHGTEVIVSS VL: ALTQPSSVSANPGETVKITCSGGGSEEEQYYYGWYQQKPGSAPVTLIYQDEERPSDIPSRFSGSTSGSTATLTITGVQAGDEADYYCGSWDSEDEDHFGAGTTLTVL | greatest effects | dose-dependent reduction | significant reduction | 
2-13: anti-FAM19A5 antibody; VH SEQ ID NO: 35, VL SEQ ID NO: 39 (antibody, V domains shown, 2-13 VH; 2-13 VL) VH: AVTLDESGGGLQTPGGALSLVCKASGFTFSSHGMFWVRQTPGKGLEYVAEITNDGSGTNYGSAVKGRATISRDNGQSTVRLQLNNLRAEDTGTYFCARSTYECPGGFSCWGDTGQIDAWGHGTEVIVSS VL: ALTQPSSVSANPGETVKITCSGGSYSYGWFQQKSPGSALVTVIYWDDERPSDIPSRFSGALSGSTNTLTITGVQADDEAVYFCGTEDISGTAGVFGAGTTLTVL |  |  |  | did not cross-compete
